Measurements taken from patent US20060154859A1 (YISSUM RESEARCH DEVELOPMENT COMPANY OF THE HEBREW …, published 2006).

Assays:
[1] = target: T1, recombinant chicken leptin binding domain (chLBD) (chicken); assay: SPR (Biacore 3000), leptin mutant amine-coupled to CM5 chip, soluble chLBD as analyte, 25 C, 1:1 Langmuir fit, mean of 2 experiments
T1 construct: The 1:1 complex with leptin has a predicted mass of 40.5 kDa, so chLBD is about 24.5 kDa
Procedure: (v) Kinetic measurements of leptin and leptin mutants interaction with chLBD. All experiments were performed at 25° C. using surface plasmon resonance (SPR) methodology. The kinetics and equilibrium constants for the interactions between human and chicken recombinant LBD and chicken and hLep were determined using the Biacore 3000 system (Uppsala, Sweden). Leptin (human, ovine or chicken) was immobilized in a flow cell of a research-grade CM5 (carboxymethyldextran) sensor chip using amine-coupling chemistry (Johnsson et al., 1991). The immobilization steps were carried out at a flow rate of 5 μl/min in HBS-EB buffer. The surface was activated for 7 min with a mixture of 0.05 M N-hydroxysuccinimide and 0.2 M N-ethyl-N′(3-dimetylaminopropyl)-carbodiimide hydrochloride. Leptin was injected at a concentration of 50 μg/ml in 10 mM acetate, pH 3.5, until the desired level (1000 resonance units) was achieved. 1 M ethanolamine, pH 8.5, was injected for 7 min to block the remaining activated groups. A control surface was prepared by activating the carboxyl groups and then blocking the activated groups by ethanolamine as described. […] Regeneration of the surface after each interaction was performed by using 10-μl pulse of 10 mM glycine buffer, pH 2. The experiments were controlled by the kinetics Wizard of the Biacore control software, which corrects automatically for refractive index changes and non-specific binding by subtraction of the responses obtained for the control surface from the data obtained for the interactions between LBD and leptin. The obtained binding curves were fitted to the association and dissociation phases at all LBD concentrations simultaneously using Biacore evaluation software. In all cases, the best fit was obtained for a simple bimolecular interaction (Langmuir model).
To further characterize the binding capacities of chLBD with human or ovine leptins and their mutants the surface plasmon resonance (SPR) technique using respective leptin (or leptin mutant) immobilized on a sensor chip by amine coupling and binding of soluble chLBD was employed.

[2] = target: T2, long form of human leptin receptor (human, UniProt P48357 22-1165); assay: radioreceptor competition assay against iodinated leptin, homogenate of BAF/3 cells with long form of human leptin receptor, average of two experiments
T2 construct: whole, on cells; The radioreceptor assay used a homogenate of the transfected BAF/3 cells; The proliferation assay used live BAF/3 1442-CI 4 cells; also called LEPR; OB-R
T2 sequence (looked up): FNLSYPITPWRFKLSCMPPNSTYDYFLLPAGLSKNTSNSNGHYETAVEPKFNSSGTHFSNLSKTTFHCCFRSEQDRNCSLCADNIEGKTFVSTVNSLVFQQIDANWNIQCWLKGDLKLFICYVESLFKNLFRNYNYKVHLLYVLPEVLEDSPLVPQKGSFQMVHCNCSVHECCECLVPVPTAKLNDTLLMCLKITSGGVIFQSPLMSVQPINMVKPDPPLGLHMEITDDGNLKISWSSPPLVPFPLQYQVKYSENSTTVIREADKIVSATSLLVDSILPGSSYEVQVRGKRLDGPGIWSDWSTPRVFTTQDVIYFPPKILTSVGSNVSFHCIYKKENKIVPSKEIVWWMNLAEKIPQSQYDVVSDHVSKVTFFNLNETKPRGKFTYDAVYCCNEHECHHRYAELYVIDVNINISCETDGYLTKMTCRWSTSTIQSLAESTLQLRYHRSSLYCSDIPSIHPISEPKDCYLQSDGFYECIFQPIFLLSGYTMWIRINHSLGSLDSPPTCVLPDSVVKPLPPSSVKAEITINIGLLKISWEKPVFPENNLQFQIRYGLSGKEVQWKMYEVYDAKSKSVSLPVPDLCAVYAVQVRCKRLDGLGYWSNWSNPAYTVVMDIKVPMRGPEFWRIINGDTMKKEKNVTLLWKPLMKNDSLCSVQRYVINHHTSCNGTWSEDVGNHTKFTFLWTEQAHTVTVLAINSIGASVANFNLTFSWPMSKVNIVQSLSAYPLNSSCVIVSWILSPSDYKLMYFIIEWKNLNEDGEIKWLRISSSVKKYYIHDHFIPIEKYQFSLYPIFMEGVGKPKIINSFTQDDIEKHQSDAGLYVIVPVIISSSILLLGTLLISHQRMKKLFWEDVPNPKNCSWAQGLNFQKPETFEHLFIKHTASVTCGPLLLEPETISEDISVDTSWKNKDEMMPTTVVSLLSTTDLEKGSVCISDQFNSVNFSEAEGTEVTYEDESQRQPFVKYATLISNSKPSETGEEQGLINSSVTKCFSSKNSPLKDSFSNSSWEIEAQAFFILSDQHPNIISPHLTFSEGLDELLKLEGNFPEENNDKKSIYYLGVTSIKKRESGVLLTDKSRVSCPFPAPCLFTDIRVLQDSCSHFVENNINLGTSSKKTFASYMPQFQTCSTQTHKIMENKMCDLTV
Procedure: (vi) Binding assays. Radiolabeled ovine ¹²⁵I-leptin served as a ligand and all other nonlabeled leptins or their mutants as competitors. The experiments were conducted with homogenates of BAF/3 cells stably transfected with the long form of human leptin receptor. The cells were cultured in RPMI 1640 supplemented with 5% FCS in the -presence of IL-3 to minimize leptin receptors down-regulation till concentration of 10⁶ cells/ml was reached. Then the cells were spun and stored at −70° C. […] Each tube contained 150 μl of reaction buffer, 100 μl ¹²⁵I-human leptin (700,000-800,000 cpm) and 100 μl of different leptin solutions (providing 0-5000 ng/tube) in reaction buffer and the reaction was started by addition of 150 μl homogenate. The tubes were incubated for 18 h at room temperature. Then the leptin-receptor complex was precipitated by adding 250 μl of 1% (w/v) bovine immunoglobulin and 500 μl of 20% (w/v) polyethylene glycol. The tubes were thoroughly mixed, incubated for 30 min at 4° C., and centrifuged at 12,000 g for 15 min at 4° C. Then supernatant was carefully aspirated and the precipitates were counted in a γ counter. Human leptin was iodinated according to a protocol previously described for the iodination of hGH (Gertler et al., 1984).
Iodinated human leptin served as the ligand in all competitive experiments and the respective wild-type (WT) human and ovine leptins and their alanine mutants as competitors. Freshly prepared homogenate of BAF/3 cells stably transfected with the long form of human leptin receptor served as receptor source. Homogenate from 1.75×10⁶ cells was used per tube giving 6 to 7% specific binding.

Binder | Kd [1] | koff [1] | kon [1] | IC50 [2]
human leptin L39A/D40A/F41A mutant (ligand, Expressed with an extra Met-Ala at the N-terminus, Met removed; also called L39A/D40A/F41A (human)) VPIQKVQDDTKTLIKTIVTRINDISHTQSVSSKQKVTGAAAIPGLHPILTLSKMDQTLAVYQQILTSMPSRNVIRISNDLENLRDLLHVLAFSKSCHLPWASGLETLDSLGGVLEASGYSTEVVALSRLQGSLQDMLWQLDLSPGC | 28.5 nM | 0.0102 s⁻¹ | 358000 M⁻¹ s⁻¹ | 5.21 nM
human leptin F41A/I42A mutant (ligand, Expressed with an extra Met-Ala at the N-terminus, Met removed; also called F41A/I42A (human)) VPIQKVQDDTKTLIKTIVTRINDISHTQSVSSKQKVTGLDAAPGLHPILTLSKMDQTLAVYQQILTSMPSRNVIRISNDLENLRDLLHVLAFSKSCHLPWASGLETLDSLGGVLEASGYSTEVVALSRLQGSLQDMLWQLDLSPGC | 31.8 nM | 0.0115 s⁻¹ | 362000 M⁻¹ s⁻¹ | 6.82 nM
human leptin L39A/D40A mutant (ligand, also called L39A/D40A (human)) VPIQKVQDDTKTLIKTIVTRINDISHTQSVSSKQKVTGAAFIPGLHPILTLSKMDQTLAVYQQILTSMPSRNVIRISNDLENLRDLLHVLAFSKSCHLPWASGLETLDSLGGVLEASGYSTEVVALSRLQGSLQDMLWQLDLSPGC | 22.9 nM | 0.0125 s⁻¹ | 545000 M⁻¹ s⁻¹ | 4.16 nM
human leptin L39A/D40A/F41A/I42A mutant (ligand, Expressed with an extra Met-Ala at the N-terminus, Met removed; also called L39A/D40A/F41A/I42A (human)) VPIQKVQDDTKTLIKTIVTRINDISHTQSVSSKQKVTGAAAAPGLHPILTLSKMDQTLAVYQQILTSMPSRNVIRISNDLENLRDLLHVLAFSKSCHLPWASGLETLDSLGGVLEASGYSTEVVALSRLQGSLQDMLWQLDLSPGC | 50.3 nM | 0.0068 s⁻¹ | 135000 M⁻¹ s⁻¹ | 5.43 nM
ovine leptin L39A/D40A/F41A mutant (ligand, also called L39A/D40A/F41A (ovine)) VSIRKVQDDTKTLIKTIVTRINDISHTQSVSSKQRVTGAAAIPGLHPLLSLSKMDQTLAIYQQILASLPSRNVIQISNDLENLRDLLHLLAASKSCPLPQVRALESLESLGVVLEASLYSTEVVALSRLQGSLQDMLRQLDLSPGC | 13.8 nM | 0.0025 s⁻¹ | 181000 M⁻¹ s⁻¹ | 2.2 nM
ovine leptin F41A/I42A mutant (ligand, also called F41A/I42A (ovine)) VSIRKVQDDTKTLIKTIVTRINDISHTQSVSSKQRVTGLDAAPGLHPLLSLSKMDQTLAIYQQILASLPSRNVIQISNDLENLRDLLHLLAASKSCPLPQVRALESLESLGVVLEASLYSTEVVALSRLQGSLQDMLRQLDLSPGC | 12.8 nM | 0.0032 s⁻¹ | 250000 M⁻¹ s⁻¹ | 3.44 nM
ovine leptin L39A/D40A mutant (ligand, also called L39A/D40A (ovine)) VSIRKVQDDTKTLIKTIVTRINDISHTQSVSSKQRVTGAAFIPGLHPLLSLSKMDQTLAIYQQILASLPSRNVIQISNDLENLRDLLHLLAASKSCPLPQVRALESLESLGVVLEASLYSTEVVALSRLQGSLQDMLRQLDLSPGC | 24 nM | 0.0057 s⁻¹ | 237000 M⁻¹ s⁻¹ | 1.83 nM
ovine leptin L39A/D40A/F41A/I42A mutant (ligand, also called L39A/D40A/F41A/I42A (ovine)) VSIRKVQDDTKTLIKTIVTRINDISHTQSVSSKQRVTGAAAAPGLHPLLSLSKMDQTLAIYQQILASLPSRNVIQISNDLENLRDLLHLLAASKSCPLPQVRALESLESLGVVLEASLYSTEVVALSRLQGSLQDMLRQLDLSPGC | 29.3 nM | 0.0032 s⁻¹ | 109000 M⁻¹ s⁻¹ | 1.83 nM
